Measured values: PMC9599826, “Selecting Multitarget Peptides for Alzheimer’s Disease” (Biomolecules, 2022)

Target: Recombinant human TLR4/myeloid differentiation factor 2 (MD-2) complex (human) (UniProt O00206)
Sequence (O00206 24-631, chain 1 of 2): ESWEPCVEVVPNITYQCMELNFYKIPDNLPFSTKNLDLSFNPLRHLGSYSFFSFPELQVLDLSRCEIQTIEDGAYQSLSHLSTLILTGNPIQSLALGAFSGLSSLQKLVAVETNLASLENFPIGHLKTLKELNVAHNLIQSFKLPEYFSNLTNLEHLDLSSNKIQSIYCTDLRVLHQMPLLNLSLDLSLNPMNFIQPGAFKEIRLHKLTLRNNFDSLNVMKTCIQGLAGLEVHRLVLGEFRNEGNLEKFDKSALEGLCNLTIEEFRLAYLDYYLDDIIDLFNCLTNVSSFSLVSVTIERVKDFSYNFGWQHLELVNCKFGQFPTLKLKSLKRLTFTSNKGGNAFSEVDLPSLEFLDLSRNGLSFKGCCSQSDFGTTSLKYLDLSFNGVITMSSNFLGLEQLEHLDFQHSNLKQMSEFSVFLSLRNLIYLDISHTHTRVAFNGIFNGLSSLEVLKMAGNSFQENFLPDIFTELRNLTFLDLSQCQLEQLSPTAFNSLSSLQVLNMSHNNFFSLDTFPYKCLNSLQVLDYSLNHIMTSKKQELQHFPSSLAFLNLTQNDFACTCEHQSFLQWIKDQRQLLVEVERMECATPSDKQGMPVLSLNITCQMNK
Sequence (Q9Y6Y9 19-160, chain 2 of 2, further chain): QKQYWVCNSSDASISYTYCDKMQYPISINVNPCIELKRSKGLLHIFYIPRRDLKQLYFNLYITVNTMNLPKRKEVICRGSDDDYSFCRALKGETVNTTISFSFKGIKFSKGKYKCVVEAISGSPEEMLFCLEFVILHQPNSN

EC50 of TLR4 activation in HEK-Blue hTLR4 reporter cells (SEAP production), S100A9 0.5-50 nM, 24 h: 0.7 nM
B1: Recombinant human calcium binding protein S100A9 (natural protein)
chain: MTCKMSQLERNIETIINTFHQYSVKLGHPDTLNQGEFKELVRKDLQNFLKKENKNEKVIEHIMEDLDTNADKQLSFEEFIMLMARLTWASHEKMHEGDEGPGHHHKPGLGEGTP
